Laboratory results: the supplement of paper PMC10567573

B1: ZNF511 (parent)
chain: EPLPVERDPAAGAAPFRFVARPVR

Variants of: B1
Experiment: protein stability index of a GFP-peptide fusion (GPS, HEK-293T) (PSI 1-6); higher = more stable
Details: c terminus: a fixed tail appended
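Further: lentivirally expressed fusions sorted by FACS into six bins by GFP to DsRed ratio, PSI derived from sequencing read proportions per bin multiplied by bin number.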

Going from EPLPVERDPAAGAAPFRFVARPVW [R24W] to EPLPVERDPAAGAAPFRFVARPVH [R24H], the protein stability index rises from 1.64 to 2.02.

Compared with EPLPVERDPAAGAAPFRFVARPVV [R24V], EPLPVERDPAAGAAPFRFVARPVQ [R24Q] is higher in protein stability index: 1.7 for the first, 1.77 for the second.

First: EPLPVERDPAAGAAPFRFVARPVF [R24F]
Second: EPLPVERDPAAGAAPFRFVARPVG [R24G]
The protein stability index of the first is higher: 2.04 for the first, 1.89 for the second.

First: EPLPVERDPAAGAAPFRFVRRPVR [A20R]
Second: EPLPVERDPAAGAAPFRFVERPVR [A20E]
The protein stability index of the first is lower: 1.67 for the first, 3.03 for the second.

Compared with EPLPVERDPAAGAAPFRFVQRPVR [A20Q], EPLPVERDPAAGAAPFRFVSRPVR [A20S] is lower in protein stability index: 2.4 for the first, 2.05 for the second.

Compared with EPLPVERDPAAGAAPFRFVWRPVR [A20W], EPLPVERDPAAGAAPFRFVPRPVR [A20P] is lower in protein stability index: 2.56 for the first, 2.2 for the second.

Going from EPLPVERDPAAGAAPFRFVCRPVR [A20C] to EPLPVERDPAAGAAPFRFVFRPVR [A20F], the protein stability index rises from 1.61 to 3.42.

Going from EPLPVERDPAAGAAPFRFVDRPVR [A20D] to EPLPVERDPAAGAAPFRFVIRPVR [A20I], the protein stability index rises from 2.46 to 3.21.

Compared with EPLPVERDPAAGAAPFRFVNRPVR [A20N], EPLPVERDPAAGAAPFRFVGRPVR [A20G] is lower in protein stability index: 2.61 for the first, 2.04 for the second.

First: APLPVERDPAAGAAPFRFVARPVR [E1A]
Second: NPLPVERDPAAGAAPFRFVARPVR [E1N]
The protein stability index of the first is higher: 2.57 for the first, 2 for the second.

First: TPLPVERDPAAGAAPFRFVARPVR [E1T]
Second: VPLPVERDPAAGAAPFRFVARPVR [E1V]
The protein stability index of the first is higher: 2.44 for the first, 2.27 for the second.

First: DPLPVERDPAAGAAPFRFVARPVR [E1D]
Second: SPLPVERDPAAGAAPFRFVARPVR [E1S]
The protein stability index of the first is higher: 2.73 for the first, 2.13 for the second.

Compared with CPLPVERDPAAGAAPFRFVARPVR [E1C], EPLPVERDPAAGAAPIRFVARPVR [F16I] is higher in protein stability index: 2.64 for the first, 4.73 for the second.

Going from EPLPVERDPAAGAAPLRFVARPVR [F16L] to EPLPVERDPAAGAAPARFVARPVR [F16A], the protein stability index rises from 4.06 to 4.67.

First: EPLPVERDPAAGAAPHRFVARPVR [F16H]
Second: EPLPVERDPAAGAAPQRFVARPVR [F16Q]
The protein stability index of the first is lower: 4.75 for the first, 5.34 for the second.

Compared with EPLPVERDPAAGAAPWRFVARPVR [F16W], EPLPVERDPAAGAAPDRFVARPVR [F16D] is higher in protein stability index: 2.46 for the first, 5.52 for the second.

Compared with EPLPVERDPAAGAAPERFVARPVR [F16E], EPLPVERRPAAGAAPFRFVARPVR [D8R] is lower in protein stability index: 5.25 for the first, 2.21 for the second.

Compared with EPLPVERIPAAGAAPFRFVARPVR [D8I], EPLPVERTPAAGAAPFRFVARPVR [D8T] is higher in protein stability index: 2.91 for the first, 2.99 for the second.

Going from EPLPVERCPAAGAAPFRFVARPVR [D8C] to EPLPVERSPAAGAAPFRFVARPVR [D8S], the protein stability index falls from 2.37 to 2.36.

Compared with EPLPVERFPAAGAAPFRFVARPVR [D8F], EPLPVERPPAAGAAPFRFVARPVR [D8P] is lower in protein stability index: 2.57 for the first, 2.4 for the second.

First: EPLPVERDPAAGAAPFRFDARPVR [V19D]
Second: EPLPVERDPAAGAAPFRFYARPVR [V19Y]
The protein stability index of the first is higher: 4.67 for the first, 4.31 for the second.

Going from EPLPVERDPAAGAAPFRFKARPVR [V19K] to EPLPVERDPAAGAAPFRFFARPVR [V19F], the protein stability index falls from 4.83 to 3.88.

First: EPLPVERDPAAGAAPFRFHARPVR [V19H]
Second: EPLPVERDPAAGAAPFRFCARPVR [V19C]
The protein stability index of the first is lower: 1.62 for the first, 3.22 for the second.

EPLPVERDPAAGAAPFRFTARPVR [V19T] and EPLPVERDPAAGAAPFRFLARPVR [V19L] are the same in protein stability index: 3.97 for the first, 3.97 for the second.

First: EPLPVERDTAAGAAPFRFVARPVR [P9T]
Second: EPLPVERDKAAGAAPFRFVARPVR [P9K]
The protein stability index of the first is higher: 2.74 for the first, 1.46 for the second.

First: EPLPVERDWAAGAAPFRFVARPVR [P9W]
Second: EPLPVERDDAAGAAPFRFVARPVR [P9D]
The protein stability index of the first is lower: 1.33 for the first, 2.38 for the second.

Compared with EPLPVERDYAAGAAPFRFVARPVR [P9Y], EPLPVERDMAAGAAPFRFVARPVR [P9M] is higher in protein stability index: 2.12 for the first, 2.73 for the second.

First: EPLPVERDAAAGAAPFRFVARPVR [P9A]
Second: EPLPVERDCAAGAAPFRFVARPVR [P9C]
The protein stability index of the first is lower: 1.72 for the first, 2.34 for the second.

Compared with EPLPVERDHAAGAAPFRFVARPVR [P9H], EPLPVERDPAAGAAPFRYVARPVR [F18Y] is higher in protein stability index: 2.59 for the first, 4.32 for the second.

Going from EPLPVERDPAAGAAPFRMVARPVR [F18M] to EPLPVERDPAAGAAPFRHVARPVR [F18H], the protein stability index rises from 4.6 to 4.71.

Compared with EPLPVERDPAAGAAPFRSVARPVR [F18S], EPLPVERDPAAGAAPFRNVARPVR [F18N] is lower in protein stability index: 5.18 for the first, 4.99 for the second.

First: EPLPVERDPAAGAAPFRRVARPVR [F18R]
Second: EPLPVERDPAAGAAPFRLVARPVR [F18L]
The protein stability index of the first is higher: 4.91 for the first, 4.49 for the second.

Going from EPEPVERDPAAGAAPFRFVARPVR [L3E] to EPYPVERDPAAGAAPFRFVARPVR [L3Y], the protein stability index falls from 2.97 to 2.26.

Compared with EPAPVERDPAAGAAPFRFVARPVR [L3A], EPTPVERDPAAGAAPFRFVARPVR [L3T] is lower in protein stability index: 2.46 for the first, 2.3 for the second.

Compared with EPIPVERDPAAGAAPFRFVARPVR [L3I], EPWPVERDPAAGAAPFRFVARPVR [L3W] is higher in protein stability index: 2.45 for the first, 2.64 for the second.

Going from EPLPVERDPAAGALPFRFVARPVR [A14L] to EPLPVERDPAAGAKPFRFVARPVR [A14K], the protein stability index rises from 2.44 to 3.16.

First: EPLPVERDPAAGAGPFRFVARPVR [A14G]
Second: EPLPVERDPAAGAPPFRFVARPVR [A14P]
The protein stability index of the first is higher: 2.55 for the first, 2.52 for the second.

Compared with EPLPVERDPAAGASPFRFVARPVR [A14S], EPLPVERDPAAGATPFRFVARPVR [A14T] is lower in protein stability index: 3.27 for the first, 2.29 for the second.

First: EPLPVERDPAAGAYPFRFVARPVR [A14Y]
Second: EPLPVERDPAAGAQPFRFVARPVR [A14Q]
The protein stability index of the first is lower: 1.96 for the first, 2.91 for the second.

Going from EPLPVERDPAAGARPFRFVARPVR [A14R] to EPLQVERDPAAGAAPFRFVARPVR [P4Q], the protein stability index falls from 2.68 to 1.99.

Going from EPLDVERDPAAGAAPFRFVARPVR [P4D] to EPLHVERDPAAGAAPFRFVARPVR [P4H], the protein stability index falls from 2.9 to 2.14.

Compared with EPLNVERDPAAGAAPFRFVARPVR [P4N], EPLTVERDPAAGAAPFRFVARPVR [P4T] is higher in protein stability index: 2.29 for the first, 2.8 for the second.

First: EPLCVERDPAAGAAPFRFVARPVR [P4C]
Second: EPLGVERDPAAGAAPFRFVARPVR [P4G]
The protein stability index of the first is lower: 1.91 for the first, 2.63 for the second.

First: EPLKVERDPAAGAAPFRFVARPVR [P4K]
Second: EPLMVERDPAAGAAPFRFVARPVR [P4M]
The protein stability index of the first is lower: 2.09 for the first, 2.66 for the second.

Going from EPLPVERDPAAGAAPFDFVARPVR [R17D] to EPLPVERDPAAGAAPFSFVARPVR [R17S], the protein stability index falls from 4.13 to 3.87.

Going from EPLPVERDPAAGAAPFAFVARPVR [R17A] to EPLPVERDPAAGAAPFNFVARPVR [R17N], the protein stability index rises from 2.96 to 3.45.

Going from EPLPVERDPAAGAAPFTFVARPVR [R17T] to EPLPVERDPAAGAAPFKFVARPVR [R17K], the protein stability index rises from 4.19 to 4.42.
